From patent US20230279018A1, “AP[…] INHIBITION” (priority 2020, published 2023) come the findings set out here.

Test [1] addresses T1, Plasmodium falciparum cytoplasmic phenylalanyl-tRNA synthetase (PfcFRS) beta subunit (Plasmodium falciparum).
T1 construct: Tags are not described; also called PfcFRS β subunit; Pf-β
T1 chain: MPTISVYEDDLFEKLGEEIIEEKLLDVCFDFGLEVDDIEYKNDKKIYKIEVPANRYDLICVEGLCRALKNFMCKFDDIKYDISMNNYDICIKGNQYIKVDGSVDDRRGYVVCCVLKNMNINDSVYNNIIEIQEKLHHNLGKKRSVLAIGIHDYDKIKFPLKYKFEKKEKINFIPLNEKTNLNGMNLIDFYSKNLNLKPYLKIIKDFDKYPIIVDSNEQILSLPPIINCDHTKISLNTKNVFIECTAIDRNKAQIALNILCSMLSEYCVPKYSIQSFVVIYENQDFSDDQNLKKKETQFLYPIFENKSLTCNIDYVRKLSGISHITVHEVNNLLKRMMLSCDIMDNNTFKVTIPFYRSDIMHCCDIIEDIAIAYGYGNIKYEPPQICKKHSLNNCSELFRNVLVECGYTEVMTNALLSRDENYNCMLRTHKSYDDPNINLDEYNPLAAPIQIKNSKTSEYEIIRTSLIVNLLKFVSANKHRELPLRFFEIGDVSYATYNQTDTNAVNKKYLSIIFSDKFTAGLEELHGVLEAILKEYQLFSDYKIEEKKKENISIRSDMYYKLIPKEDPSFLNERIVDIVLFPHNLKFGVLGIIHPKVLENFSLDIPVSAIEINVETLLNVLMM
Briefly: SDS-PAGE of the final purified protein (co-purification of the α and β subunits).

The target of test [2] is T2, Plasmodium vivax cytoplasmic phenylalanyl-tRNA synthetase (PvcFRS) beta subunit (PVX_090880) (Plasmodium vivax, UniProt A5K464 1-617).
T2 construct: Said to be full-length; Tag or fusion residues from the vector are not described; Two copies stand in the α2β2 heterotetramer; also called PvcFRS β subunit; PvFRS β subunit
T2 sequence: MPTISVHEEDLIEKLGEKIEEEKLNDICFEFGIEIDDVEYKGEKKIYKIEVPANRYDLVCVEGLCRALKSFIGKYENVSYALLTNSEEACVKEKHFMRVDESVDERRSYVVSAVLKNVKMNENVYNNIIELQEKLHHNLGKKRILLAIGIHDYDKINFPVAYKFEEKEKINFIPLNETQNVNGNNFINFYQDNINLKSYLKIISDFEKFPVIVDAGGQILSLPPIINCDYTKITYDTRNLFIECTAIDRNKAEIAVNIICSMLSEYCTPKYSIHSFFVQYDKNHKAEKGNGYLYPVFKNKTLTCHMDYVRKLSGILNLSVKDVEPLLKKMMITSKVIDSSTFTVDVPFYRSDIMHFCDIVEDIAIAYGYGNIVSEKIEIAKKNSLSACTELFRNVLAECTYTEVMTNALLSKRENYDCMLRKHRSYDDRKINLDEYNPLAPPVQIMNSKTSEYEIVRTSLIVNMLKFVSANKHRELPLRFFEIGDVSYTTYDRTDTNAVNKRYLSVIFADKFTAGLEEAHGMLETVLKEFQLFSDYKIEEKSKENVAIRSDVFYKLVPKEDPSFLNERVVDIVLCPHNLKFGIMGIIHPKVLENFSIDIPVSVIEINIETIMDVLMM
In words: analytical gel filtration (Superdex 200) of co-expressed, co-purified alpha and beta subunits.

B1: Plasmodium falciparum cytoplasmic phenylalanyl-tRNA synthetase (PfcFRS) alpha subunit (enzyme)
chain: MSTNNVEEKKNEELYNLLNILEEEFNLSKIENKNNNKNDDGDDDDVNKREDNNNNEYYKKLKDEKGLDVLINEYTTSLKISKKYNIDHNKVMGMIKKLETLYYIINLIKSFNTYHLSDEGKQYLKEGSPEFIVIKYVIQNNKCTLEDLKKNLGKIGDIGLNTNLKNRTIQLNKADKCLTCNCNLHDIQDFTQIYLDIINQYGHDEELLFAHLKNKNHTKNALNNNEMKNSCKDNNIINNLIQDLKKRKLLEIKKNSYSHVIKTSIFKKDIKKQITDINYLLLKNEEYKKYDIKKYNFFSSGKKINKGNIHLLTKQMRTFKEIFFSLGFEEMETHNYVESSFWCFDALYIPQQHPSRDLQDTFFIKEPETCIDKFVDTEYIDNIKRVHTHGDYGSFGWNYKWKLEESKKNVLRTHTTANSCRALFKLAKEYKEAGCIKPKKYFSIDRVFRNENLDSTHLAEFHQVEGLIIDKNIGLSHLIGTLAAFYKHIGIHKLKFKPTFNPYTEPSMEIYGYHEQSKKWLEVGNSGIFRPEMLRSMGFSEEVSVIAWGLSLERPTMIKYNIKNIRDLFGYKSVV
notes: Tags are not described; also called PfcFRS α subunit
On to B1, for which the binding result in test [1] is “binds”.

B2: Plasmodium vivax cytoplasmic phenylalanyl-tRNA synthetase (PvcFRS) alpha subunit (PVX_081300) (enzyme)
chain: MQAKAQEEQKGEELSQFLQALEEEFALCQEGGGDKREADGPSLENAEAEELANRRAYYLQLKEERNVLVEESKHVTSLHMSSKHNIEHAKVLGMAKKLETLYYVVNHVRSFNTYQLTEEGKEYLRDGSPEHVTLRYVMEQEGCTLEDLKKLFGKKGEIGLNINLKKKKIELRKSDKRLFPHVEGSAHSLVDETRCYLQKVEAHGNDEGALVSHLKGILPPEKGEKKEEDEANNLIKELKKRKLIEAKKISYIYIIRTNLFTKEIKKQITDLTYLLIKNEEYKKYQVKKYNFFSSGKKMNKGNIHLLIRQMRTFKDVFVSLGFEEMNTHNYVESSFWCFDALYIPQQHPSRDLQDTFFIKVPEMCQEEFTDQSYIENVKRVHSVGDYGSFGWNYQWELKSTKKNVLRTHTTANSCRALFQLAKEYQKTGSIIPKKFFSIDRVFRNENLDSTHLAEFHQVEGLIIDRNLGLSHLIGTLSAFYKYIGISKLRFKPTFNPYTEPSMEVYGYHEENKKWLEVGNSGIFRPEMLRAMGFPPEVSVIAWGLSLERPTMIKYSIRNIRDLFGYRSVI
notes: Said to be full-length; Tag residues from the vector are not described; Two copies stand in the α2β2 heterotetramer; Residues 1-270 were disordered in the crystal; also called PvcFRS α subunit; PvFRS α subunit
As to B2, the binding result in test [2] is “binds”.
